US20110183922A1 (UNIVERSITY OF MIAMI, published 2011)

Legend:
[1] = target: AChE expressed in COS cells (human and/or mouse AChE) (human and/or mouse); assay: cell-based or functional assay
[2] = target: AChE of primary quail muscle cells (quail); assay: cell-based or functional assay

## CCLLTPPPPPLFPPPFFKDEL [ColQ PRAD-KDEL peptide]
[1]
  G4 AChE level: 2.37

## VNKCCLLTPPPPPLFPPPFFKDEL [SEQ ID NO: 6]
[1]
  G4 AChE level: 2.26

## CCLLTPPPPPLFPPPFF [ColQ PRAD peptide (17 amino acid ColQ PRAD polypeptide)]
[2]
  tetrameric G4 AChE activity in the medium (velocity sedimentation, 10 uM peptide overnight): > 2 fold

## KRSVNKCCLLTPPPPPLFPPPFFKDEL [SEQ ID NO: 9]
[1]
  G4 AChE level: 2.37

## KRSVNKCCLLTPPPPPLFPPPFFTETNILKDEL [SEQ ID NO: 11]
[1]
  G4 AChE level: 2.14

## VNKCCLLTPPPPPLFPPPFFTETLDEL [SEQ ID NO: 8]
[1]
  G4 AChE level: 2.17
